T1: Rpt5 C-domain (UniProt P33297 350-434)
T1 chain: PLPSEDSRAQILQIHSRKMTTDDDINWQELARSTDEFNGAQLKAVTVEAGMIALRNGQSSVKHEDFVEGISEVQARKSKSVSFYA

B1: Nas2ND (domain or fragment)
chain: NDLNHLLQRSHVLLNQHFDNMNVKSNQDARRNNDDQAIQYTIPFAFISEVVPGSPSDKADIKVDDKLISIGNVHAANHSKLQNIQMVVMKNEDRPLPVLLLREGQILKTSLTPSRNWNGRGLLGCRIQEL
B2: Nas2 (natural protein)
chain: MEEEELSKLLANVKIDPSLTSRISQIDSFKLSELMVLKTDIETQLEAYFSVLEQQGIGMDSALVTPDGYPRSDVDVLQVTMIRKNVNMLKNDLNHLLQRSHVLLNQHFDNMNVKSNQDARRNNDDQAIQYTIPFAFISEVVPGSPSDKADIKVDDKLISIGNVHAANHSKLQNIQMVVMKNEDRPLPVLLLREGQILKTSLTPSRNWNGRGLLGCRIQEL
B3: Nas2LND (domain or fragment)
chain: GPLTRRASVGSQAIQYTIPFAFISEVVPGSPSDKADIKVDDKLISIGNVHAANHSKLQNIQMVVMKNEDRPLPVLLLREGQILKTSLTPSRNWNGRGLLGCRIQEL

Columns and labels:
Rpt5 C-domain [1] = target: T1, Rpt5 C-domain; test: BLI
Rpt5 C-domain [2] = target: T1, Rpt5 C-domain; test: BLI

Binder | koff (Rpt5 C-domain [1]) | Kd (Rpt5 C-domain [2])
B1 | 0.26 s⁻¹ | 3.4 µM
B2 | 0.013 s⁻¹ | 1.4 µM
B3 | 0.39 s⁻¹ | 8.5 µM

Reference: PMC3976055 (2014)
